Assay results: US20240368269A1 (Memorial Sloan Kettering, published 2024)

T1: DLL3 (target in the Fab-Zap internalization assay) (UniProt Q9NYJ7 27-618, limits assumed)
T1 sequence (looked up): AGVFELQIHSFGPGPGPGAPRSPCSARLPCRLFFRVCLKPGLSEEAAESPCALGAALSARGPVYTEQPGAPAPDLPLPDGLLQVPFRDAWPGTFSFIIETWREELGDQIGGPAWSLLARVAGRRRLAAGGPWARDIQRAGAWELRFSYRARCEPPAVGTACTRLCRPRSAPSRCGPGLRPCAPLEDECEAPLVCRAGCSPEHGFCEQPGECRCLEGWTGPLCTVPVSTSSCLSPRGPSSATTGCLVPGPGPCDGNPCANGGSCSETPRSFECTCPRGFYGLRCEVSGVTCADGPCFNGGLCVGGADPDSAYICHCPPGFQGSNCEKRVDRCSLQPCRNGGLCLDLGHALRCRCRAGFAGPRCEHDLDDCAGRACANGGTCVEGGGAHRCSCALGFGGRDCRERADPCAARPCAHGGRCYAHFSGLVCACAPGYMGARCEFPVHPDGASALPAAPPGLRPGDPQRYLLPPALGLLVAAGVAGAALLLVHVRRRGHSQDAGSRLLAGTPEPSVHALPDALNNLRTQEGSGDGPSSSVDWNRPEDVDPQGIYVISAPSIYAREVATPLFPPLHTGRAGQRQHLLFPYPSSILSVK

B1: C8 (antibody, V domains shown)
VH: EVQLVESGGGLVQPGGSQRLSCAASGFTFSSYWMNWVRQAPGKGLEWVANIKEDGSEKYYVDSVKGRFTISRDNAKNSLYLQMNSLRAEDTAVYYCARDPGWAPFDYWGQGTLVTVSS
VL: DIQMSQSPSSLSASVGDRVTITCRASQGISNYLAWFQQKPGKAPKSLIYAASSLQSGVPSKFSGSGSGTDFTLAISSLQPEDFATYYCQQYNSFPYTFGQGTTLEIK
B2: E9 (antibody, V domains shown)
VH: QVQLVQSGAEVKKPGASVKVSCKASGYTFTSYYMHWVRQAPGQGLEWMGVINSSGGSTSYAQKFQGRVTMTRDTSTSTVYMDLSSLRSEDTAVYYCARGYCTNGVYYDEDFDYWGQGTLVTVSS
VL: DIQMTQSPSSLSASVGDRVTITCRASQGISHYLAWFQQKPGKAPTSLIYAASSLQSGVPSKFSGSGSGTDFTLTISSLQPEDFATYYCQQYNSYPLTFGGGTKVEIK
B3: O24 (antibody, V domains shown)
VH: QVQLVQSGAEVKKPGASVKVSCKASGYTFTSYYLHWVRQAPGHGLEWMAIINPSGGSTSYAQKFLGRVTMTRDTSTNTVYMELSSLRSEDTAVYYCARERQQLDYYYFAMDVWGQGTTVTVSS
VL: DIQMTQSPSSLSASVGDRVTITCRASQGISNYLAWFQQKPGKAPKSLIYAASSLQSGVPSKFSGSGSGTDFTLTISSLQPEDFATYYCQQYNSYPPTFGQGTKVEIK
B4: J8 (antibody, V domains shown)
VH: QVHLVQSGAEVKKPGASVKVSCKASGYTFTIYYIHWVRQAPGQGLEWMGIINPSGGSTSYAQKFQGRVTMTRDTSTSTVYMELSSLRSEDTAVYYCSGNDYVDYVTTDYYGMDVWGQGTTVTVSS
VL: DIQMTQSPSSLSASVGDRVTITCRASQGISNYLAWFQQKPGKAPKSLIYAASSLQSGVPSKFSGSGSGTDFTLTISSLQPEDFATYYCQQYNSSPYTFGQGTKLEIK
B5: G23 (antibody, V domains shown)
VH: QVQLVQSGAEVKKPGASVKVSCKASGYTFTSYYIHWVRQAPGQGLEWMGIIDPSDGSTNYAQKFQGRVTMTRDTSTSTVYMELSSLRSEDTAVYYCARDREYNYYGLDVWGQGTTVTVSS
VL: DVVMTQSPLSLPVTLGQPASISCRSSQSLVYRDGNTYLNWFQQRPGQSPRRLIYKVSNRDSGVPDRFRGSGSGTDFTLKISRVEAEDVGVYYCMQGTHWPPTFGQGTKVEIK
B6: F9 (antibody, V domains shown)
VH: QVQLVQSGAEVKKPGASVQVSCKASGYTFTSYYMHWVRQAPGQGLEWMGIINPSGGSTSYAQKFQGRVTMTRDTSTSTVYMELSSLRSEDTAVYYCARQGGAQWLVLAFDIWGQGTMVTVSS
VL: EIVLTQSPGTLSLSPGERATLSCRASQSVSSYLAWYQQKPGQPPRLLIYGASSRATGIPDRFSGGGSGTDFTLTISRLEPEDFAVYYCQQYDSSPYTFGQGTKLEIK
B7: G16 (antibody, V domains shown)
VH: QVQLVQSGAEVKKPGASVQVSCKASGYTFTSYYMHWVRQAPGQGLEWMGIINPSGGSTSYAQKFQGRVTMTRDTSTSTVYMELSSLRSEDTAVYYCARQGGAQWLVLAFDIWGQGTMVTVSS
VL: EIVLTQSPGTLSLSPGERATLSCRASQSVSSYLAWYQQKPGQAPRLLIYGASSRATGIPDRFSGGGSGTDFTLTISRLEPEDFAVYYCQQYGSSPYTFGQGTKLEIK
B8: L22 (antibody, V domains shown)
VH: EVQLLESGGGLVQPGGSLRLSCAASGFTFSSYAMGWVRQTPGKGLEWVSTISGRGGDTYYADSVKGRFTISRDNSKNTLYLQMNSLRAEDTAIYYCAKERGLGFDYWGQGTLVTVSS
VL: DIVMTQTPLSLPVTPGEPASISCRSSQSLLDSDDGNTYLDWYLQKPGQSPQLLIYTLSYRASGVPDRFSGSGSGTDFTLKISRVEAEDVGVYYCMQHLEFPLTFGGGTKVEIK
B9: A18 (antibody, V domains shown)
VH: QVTLRESGPALVKSTQTLTLTCTFSGFSLSTSGMCVSWIRQTPGKALEWLALIDWDDNKYYSTSLKTRLIISKDTSKNQVVLTMTNMEPVDTATYYCARIRGYSGSYDAFDIWGQGTMVTVSS
VL: DIVMTQSPLSLPVTPGEPASISCRSSQSLLHSNGYNYLDWYLQKPGQSPHILLYLGSNRAPGVPDRFSGSGSGTDFTLKISRVEAEDVGVYYCMQALQTPFTFGPGTKVDIK
B10: D8 (antibody, V domains shown)
VH: QVQLVQSGAEVKKPGASVKVSCKASGYTFTTYYMHWVRQAPGQGLEWMGIINPSGGSTSYAQKFQGRVTMTRDTSTSTVYMELSSLRSEDTAVYYCARQGHYIGNYLDYWGQGTLVTVSS
VL: not shown
B11: L12 (antibody, V domains shown)
VH: QVQLVQSGAEVKKPGASVKVSCKASGYTFTSYYMHWVRQAPGQGLEWMGIINPSGGSRSYAQKFQGRVTMTRDTSTSTVYMELSSLRSEDTAVYYCARQLELLGNAFDIWGQGTMVTVSS
VL: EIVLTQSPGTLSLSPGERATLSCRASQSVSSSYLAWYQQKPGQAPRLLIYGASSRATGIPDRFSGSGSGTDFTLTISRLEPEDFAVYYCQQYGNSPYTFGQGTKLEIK
B12: C22 (antibody, V domains shown)
VH: QVQLVQSGAEVKKPGASVKVSCKASGYTFTSYYMHWVRQAPGQGLEWMGIINPSGGSTSYAQKFQGRVTMTRDTSTSTVYMELSSLRSEDTAVYYCARVADIVGATFDYWGQGTLVTVSS
VL: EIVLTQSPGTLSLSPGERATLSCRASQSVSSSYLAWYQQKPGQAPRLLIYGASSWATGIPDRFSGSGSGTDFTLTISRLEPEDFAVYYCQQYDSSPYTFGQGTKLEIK
B13: M11 (antibody, V domains shown)
VH: QVQLVQSGAEVKKPGASVKVSCKASGYTFTSYYIHWVRQAPGQGLEWMGIINPSGGSKSYAQKFQGRVTMTRDTSTGTVYMELSSLRSEDTAVYYCAGQLELLGNAFDIWGQGTMVTVSS
VL: not shown
B14: J23 (antibody, V domains shown)
VH: QVQLVQSGAEVKKPGASVKVSCKASGYTFTSYYMHWVRQAPGQGLEWMGIINYSGGSKSYAQKFQGRVTMTRDTSTSTVYMELSSLRSEDTGVYYCARQGRYSGSYLDYWGQGTLVTVSS
VL: not shown
B15: O18 (antibody, V domains shown)
VH: QVQLQESGPGLVKPSETLSLTCTVSGGSINSYYWSWIRQPPGKGLEWIGYIFYSGITNYNPSLKSRVTISLDTSKNQFSLKLSSVTAADTAVYYCARIGVAGFYFDYWGQGTLVTVSS
VL: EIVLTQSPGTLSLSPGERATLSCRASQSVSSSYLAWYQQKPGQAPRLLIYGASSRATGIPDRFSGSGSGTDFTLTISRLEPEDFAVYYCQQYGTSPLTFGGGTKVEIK
B16: I1 (antibody, V domains shown)
VH: EVQLVESGGGLVKPGGSLRLSCAASGFTFSNTWMSWVRQAPGKGLEWVGRIKSKSDGGTTDYAAPVKGRFTISRDDSKNTLYLQMNSLKTEDTAVYYCTQYYWNSFDYWGQGTLVTVSS
VL: not shown
B17: E23 (antibody, V domains shown)
VH: QVQLVQSGAEVRKPGASVKVSCKASGYTFTGYYMHWVRQAPGQGLEWMGWINSYSGGANYAQKFQDRVTMTRDTSVSTASMELSRLRSDDTAVYYCARDGSGWYGSYFDFWGQGTLVTVSS
VL: DIVMTQTPLSSPVTLGQPASISCRSSQSLVHSDGNTYLSWLQQRPGQPPRLLIYKISNRFSGVPDRFSGSGAGTDFTLKISRVEAEDVGFYYCIQTTQFPLTFGGGTKVEIK
B18: P4 (antibody, V domains shown)
VH: EVQLVESGGGLVKPGGSLRLSCAASGFTFSFYSMNWVRQAPGKGLEWVSSISSSSSYIYYADSVKGRFTISRDNAKNSLYLQMNSLRAEDTAVYYCARNYDFWRGAFDIWGQGTMVTVSS
VL: not shown
B19: B22 (antibody, V domains shown)
VH: EVQLVESGGGLVQPGGSLRLSCAASGFTFNNFWMSWVRQAPGKGLEWVANIKQDGSEKYYVDSVKGRFTISRDNAKNSLYLQMNSLRAEDTAVYYCARESYFDLWGRGTLVTVSS
VL: QAVVTQESALTTSPGETVTLTCRSSTGAVTTSNYANWVQEKPDHLFTGLIGGTNNRAPGVPARFSGSLIGDKAALTITGAQTEDEAIYFCALWYSNRWVFGGGTKLTVL
B20: F21 (antibody, V domains shown)
VH: EVQLVESGGGLVQPGGSLRLSCAASGFTFSSYWMSWVRQAPGKGLEWVANIKQDGSEKYYVDSVKGRFTISRDNAKNSLYLQMNSLRAEDTAVYYCAREWLRFGGLVYWGQGTLVTVSS
VL: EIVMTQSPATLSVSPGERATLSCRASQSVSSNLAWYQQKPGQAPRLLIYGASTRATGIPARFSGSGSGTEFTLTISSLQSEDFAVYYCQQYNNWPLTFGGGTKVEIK
B21: G3 (antibody, V domains shown)
VH: QVQLQESGPGLVKPSETLFLTCTVSGGSISSYYWTWIRQPAGKGLEWIGRIYTSGSTNYNPSLKSRVTMSVDTSKNQFSLKLSSVTAADTAVYYCAREDWESWTFDIWGQGTMVTVSS
VL: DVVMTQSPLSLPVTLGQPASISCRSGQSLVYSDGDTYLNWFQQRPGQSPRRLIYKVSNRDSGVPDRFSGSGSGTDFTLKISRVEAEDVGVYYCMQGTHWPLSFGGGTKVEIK
B22: N10 (antibody, V domains shown)
VH: QVQLVQSGAEVKKPGASVKVSCKASGYTFTGYYMHWVRQAPGQGLEWMGWINPHSGAPNSAQKFQVRVTMTRDTSISTAYMELSRLRSDDTAVYYCARDSSGWYGDAFDIWGQGTMVTVSS
VL: not shown
B23: K19 (antibody, V domains shown)
VH: QVQLVQSGAEVKKPGASLKVSCKTSGYTFNSYYMHWVRQAPGQGLEWMGINNPSGGTTSYAQKFQGRVTMTRDTSTSTVYMELSSLRSEDTAVYYCARDWGEQYGMDVWGQGTTVTVSS
VL: not shown

Target: T1, DLL3 (target in the Fab-Zap …)
Assay: cell-based or functional assay

| Binder | Percent Max Killing (Fab-Zap internalization assay, 10 ug/ml) [%] |
| --- | --- |
| B1 | 89 |
| B2 | 61.4 |
| B3 | 80.3 |
| B4 | 64 |
| B5 | 94 |
| B6 | 70 |
| B7 | 46 |
| B8 | 82 |
| B9 | 67 |
| B10 | 68 |
| B11 | 61 |
| B12 | 69.1 |
| B13 | 65.2 |
| B14 | 59.5 |
| B15 | 88 |
| B16 | 97 |
| B17 | 88.7 |
| B18 | 68 |
| B19 | 61.9 |
| B20 | 20 |
| B21 | 86 |
| B22 | 74 |
| B23 | 71 |
